Source: patent US20190225669A1 (ACCELERON PHARMA, published 2019)
Where two headings read alike, the source gives them in different places. Values belong to the binder of their own block, whether it stands above or below them.

Legend:
[1] = biological target: T1, BMP5 (UniProt P22003 317-454, limits assumed); experiment: Biacore SPR
T1 sequence (looked up): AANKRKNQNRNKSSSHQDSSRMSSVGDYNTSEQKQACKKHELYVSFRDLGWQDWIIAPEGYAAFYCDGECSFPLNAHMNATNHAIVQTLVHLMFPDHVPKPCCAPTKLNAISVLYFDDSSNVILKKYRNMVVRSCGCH
Experimental: (§1) Ligands were injected and allowed to flow over the captured receptor protein.

[2] = biological target: T2, BMP6 (UniProt P22004 382-513, limits assumed); experiment: Biacore SPR
T2 sequence (looked up): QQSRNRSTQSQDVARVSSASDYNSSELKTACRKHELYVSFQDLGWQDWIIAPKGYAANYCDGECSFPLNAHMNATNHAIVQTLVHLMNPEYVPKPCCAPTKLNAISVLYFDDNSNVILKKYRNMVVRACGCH
Experimental: as §1

[3] = biological target: T2, BMP6; experiment: Biacore SPR; remark: listed apart in the source
Experimental: as §1

[4] = biological target: T3, GDF7 (UniProt Q7Z4P5 322-450, limits assumed); experiment: Biacore SPR; kinetics indeterminate (transient)
T3 construct: also called BMP12
T3 sequence (looked up): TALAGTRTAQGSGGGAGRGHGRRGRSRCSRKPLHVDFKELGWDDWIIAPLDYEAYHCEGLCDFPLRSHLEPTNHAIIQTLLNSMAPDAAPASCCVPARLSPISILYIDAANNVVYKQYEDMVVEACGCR
Experimental: as §1

[5] = biological target: T4, GDF5 (UniProt P43026 382-501); experiment: Biacore SPR; kinetics indeterminate (transient)
T4 construct: also called BMP14
T4 sequence (looked up): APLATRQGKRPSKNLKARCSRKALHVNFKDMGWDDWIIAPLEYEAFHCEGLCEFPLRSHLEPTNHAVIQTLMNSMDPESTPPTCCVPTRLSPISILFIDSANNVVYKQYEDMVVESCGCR
Experimental: as §1

[6] = biological target: T2, BMP6; experiment: Biacore SPR; remark: listed apart in the source
Experimental: as §1

[7] = biological target: T1, BMP5; experiment: Biacore SPR; remark: listed apart in the source
Experimental: as §1

[8] = biological target: T5, BMP7 (UniProt P18075 293-431); experiment: Biacore SPR
T5 sequence (looked up): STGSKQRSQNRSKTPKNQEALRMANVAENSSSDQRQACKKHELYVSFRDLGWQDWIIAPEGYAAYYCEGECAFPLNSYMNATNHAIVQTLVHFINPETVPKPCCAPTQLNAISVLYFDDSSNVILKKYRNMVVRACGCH
Experimental: as §1

[9] = biological target: T4, GDF5; experiment: Biacore SPR
Experimental: as §1

[10] = biological target: T6, GDF6 (UniProt Q6KF10 336-455, limits assumed); experiment: Biacore SPR
T6 construct: also called BMP13
T6 sequence (looked up): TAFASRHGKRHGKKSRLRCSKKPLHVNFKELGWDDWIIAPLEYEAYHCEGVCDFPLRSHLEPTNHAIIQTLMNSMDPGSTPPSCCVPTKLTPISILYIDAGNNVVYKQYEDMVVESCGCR
Experimental: as §1

[11] = biological target: T1, BMP5; experiment: Biacore SPR; remark: listed apart in the source
Experimental: as §1

[12] = biological target: T5, BMP7; experiment: Biacore SPR; remark: listed apart in the source
Experimental: as §1

[13] = biological target: T2, BMP6; experiment: Biacore SPR; remark: listed apart in the source
Experimental: as §1

[14] = biological target: T7, TGFβ3 (human, UniProt P10600 301-412); experiment: Biacore SPR; * low signal
T7 construct: Human (PeproTech) is stated for the A549 reporter assay; also called TGF-beta3
T7 sequence (looked up): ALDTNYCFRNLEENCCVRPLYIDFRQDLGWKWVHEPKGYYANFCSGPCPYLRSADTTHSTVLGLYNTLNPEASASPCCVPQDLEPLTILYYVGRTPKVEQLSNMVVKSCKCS
Experimental: (§2) The heteromeric or homomeric protein complexes were independently captured onto the system using an anti-Fc antibody. Ligands were injected and allowed to flow over the captured receptor protein.

[15] = biological target: T8, TGFβ2 (human, UniProt P61812 303-414); experiment: Biacore SPR; * low signal
T8 construct: Human (PeproTech) is stated for the A549 reporter assay; also called TGF-beta2
T8 sequence (looked up): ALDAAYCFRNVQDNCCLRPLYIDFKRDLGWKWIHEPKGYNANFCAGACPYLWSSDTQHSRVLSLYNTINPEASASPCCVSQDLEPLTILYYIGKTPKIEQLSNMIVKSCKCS
Experimental: as §2

[16] = biological target: T9, TGFβ1 (human, UniProt P01137 279-390); experiment: Biacore SPR; * low signal
T9 construct: Human (PeproTech) is stated for the A549 reporter assay; also called TGF-beta1
Experimental: as §2

[17] = biological target: T10, BMP9 (UniProt Q9UK05 320-429); experiment: Biacore SPR
T10 construct: also called GDF2
T10 sequence (looked up): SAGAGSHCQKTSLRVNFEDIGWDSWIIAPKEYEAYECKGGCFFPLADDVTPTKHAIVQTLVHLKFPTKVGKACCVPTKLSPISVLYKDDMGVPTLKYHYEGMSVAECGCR

[18] = biological target: T11, BMP10 (UniProt O95393 317-424); experiment: Biacore SPR
T11 sequence (looked up): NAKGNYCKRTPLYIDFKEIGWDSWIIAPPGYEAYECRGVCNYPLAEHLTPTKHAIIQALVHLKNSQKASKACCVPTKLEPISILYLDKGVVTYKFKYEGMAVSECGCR

[19] = biological target: T7, TGFβ3; experiment: cell-based or functional assay
[20] = biological target: T8, TGFβ2; experiment: cell-based or functional assay
[21] = biological target: T9, TGFβ1; experiment: cell-based or functional assay
[22] = biological target: T8, TGFβ2; experiment: Biacore SPR

T9 sequence (P01137 279-390 limits assumed): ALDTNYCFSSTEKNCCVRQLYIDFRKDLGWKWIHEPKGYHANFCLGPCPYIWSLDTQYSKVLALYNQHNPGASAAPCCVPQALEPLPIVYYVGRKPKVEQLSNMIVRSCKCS

Kd [1]: 2900 pM
koff [1]: 0.075 s⁻¹
kon [1]: 2.6e+07 M⁻¹ s⁻¹
Kd [2]: 160 pM
koff [2]: 0.0039 s⁻¹
kon [2]: 2.4e+07 M⁻¹ s⁻¹
Kd [3]: 190 pM
koff [3]: 0.0068 s⁻¹
kon [3]: 3.2e+07 M⁻¹ s⁻¹
Kd [4]: > 12000 pM
Kd [5]: > 9600 pM
Kd [6]: 1100 pM
koff [6]: 0.007 s⁻¹
kon [6]: 6.4e+06 M⁻¹ s⁻¹
Kd [7]: 9700 pM
koff [7]: 0.037 s⁻¹
kon [7]: 3.8e+06 M⁻¹ s⁻¹
Kd [8]: 1600 pM
koff [8]: 0.014 s⁻¹
kon [8]: 8.8e+06 M⁻¹ s⁻¹
Kd [9]: 1100 pM
koff [9]: 0.0014 s⁻¹
kon [9]: 1.2e+06 M⁻¹ s⁻¹
Kd [10]: 39000 pM
koff [10]: 0.0057 s⁻¹
kon [10]: 150000 M⁻¹ s⁻¹
Kd [11]: 2900 pM
koff [11]: 0.075 s⁻¹
kon [11]: 2.6e+07 M⁻¹ s⁻¹
Kd [12]: 1600 pM
koff [12]: 0.014 s⁻¹
kon [12]: 8.8e+06 M⁻¹ s⁻¹
Kd [13]: 190 pM
koff [13]: 0.0068 s⁻¹
kon [13]: 3.5e+07 M⁻¹ s⁻¹
B1: ActRIIB-Fc homodimer (Fc fusion, UniProt Q13705 19-137, looked up, not shown: a dimerising Fc or GST)
chain: SGRGEAETRECIYYNANWELERTNQSGLERCEGEQDKRLHCYASWRNSSGTIELVKKGCWLDDFNCYDRQECVATEENPQVYFCCCEGNFCNERFTHLPEAGGPEVTYEPPPTAPTLLT
notes: extracellular domain; also called ActRIIB homodimer

Kd [14]: 38 pM
koff [14]: 0.001 s⁻¹
kon [14]: 2.7e+07 M⁻¹ s⁻¹
Kd [15]: 0.4 pM
koff [15]: 2.9e-06 s⁻¹
kon [15]: 6.6e+06 M⁻¹ s⁻¹
Kd [16]: 12 pM
koff [16]: 0.0017 s⁻¹
kon [16]: 1.4e+08 M⁻¹ s⁻¹
binding result [17]: no binding
binding result [18]: no binding
IC50 (pM), CAGA12-luciferase reporter gene assay in A549 cells, TGFβ3 at 270 pg/mL [19]: < 90 pM
IC50 (pM), CAGA12-luciferase reporter gene assay in A549 cells, TGFβ2 at 480 pg/mL [20]: ~200 pM
IC50 (pM), CAGA12-luciferase reporter gene assay in A549 cells, TGFβ1 at 640 pg/mL [21]: < 350 pM
B2: TGFβRIISHORT-Fc:ALK5-Fc heterodimer (Fc fusion)
chain 1: TIPPHVQKSVNNDMIVTDNNGAVKFPQLCKFCDVRFSTCDNQKSCMSNCSITSICEKPQEVCVAVWRKNDENITLETVCHDPKLPYHDFILEDAASPKCIMKEKKKPGETFFMCSCSSDECNDNIIFSEEYNTSNPDTGGGTHTCPPCPAPELLGGPSVFLFPPKPKDTLMISRTPEVTCVVVDVSHEDPEVKFNWYVDGVEVHNAKTKPREEQYNSTYRVVSVLTVLHQDWLNGKEYKCKVSNKALPAPIEKTISKAKGQPREPQVYTLPPSRKEMTKNQVSLTCLVKGFYPSDIAVEWESNGQPENNYKTTPPVLKSDGSFFLYSKLTVDKSRWQQGNVFSCSVMHEALHNHYTQKSLSLSPGK
chain 2: ALLPGATALQCFCHLCTKDNFTCVTDGLCFVSVTETTDKVIHNSMCIAEIDLIPRDRPFVCAPSSKTGSVTTTYCCNQDHCNKIELPTTVKSSPGLGPVETGGGTHTCPPCPAPELLGGPSVFLFPPKPKDTLMISRTPEVTCVVVDVSHEDPEVKFNWYVDGVEVHNAKTKPREEQYNSTYRVVSVLTVLHQDWLNGKEYKCKVSNKALPAPIEKTISKAKGQPREPQVYTLPPSREEMTKNQVSLTCLVKGFYPSDIAVEWESNGQPENNYDTTPPVLDSDGSFFLYSDLTVDKSRWQQGNVFSCSVMHEALHNHYTQKSLSLSPG
notes: also called TGFβRIISHORT:ALK5-Fc Heterodimer; TGFβRII-Fc:ALK5-Fc heterodimer (short isoform)

Kd [14]: 38 pM
koff [14]: 0.001 s⁻¹
kon [14]: 2.7e+07 M⁻¹ s⁻¹
Kd [15]: 0.07 pM
koff [15]: 2.8e-07 s⁻¹
kon [15]: 4.2e+06 M⁻¹ s⁻¹
Kd [16]: 14 pM
koff [16]: 0.00092 s⁻¹
kon [16]: 6.6e+07 M⁻¹ s⁻¹
affinity ratio against TGFβRII-Fc homodimer [22]: ~100000 fold
off-rate ratio against TGFβRII-Fc homodimer [22]: ~10000 fold
binding result [17]: no binding
binding result [18]: no binding
IC50 (pM), CAGA12-luciferase reporter gene assay in A549 cells, TGFβ3 at 270 pg/mL [19]: 35 pM
IC50 (pM), CAGA12-luciferase reporter gene assay in A549 cells, TGFβ2 at 480 pg/mL [20]: 154 pM
IC50 (pM), CAGA12-luciferase reporter gene assay in A549 cells, TGFβ1 at 640 pg/mL [21]: 204 pM
B3: TGFβRIILONG-Fc:ALK5-Fc heterodimer (Fc fusion)
chain 1: TIPPHVQKSDVEMEAQKDEIICPSCNRTAHPLRHINNDMIVTDNNGAVKFPQLCKFCDVRFSTCDNQKSCMSNCSITSICEKPQEVCVAVWRKNDENITLETVCHDPKLPYHDFILEDAASPKCIMKEKKKPGETFFMCSCSSDECNDNIIFSEEYNTSNPDTGGGTHTCPPCPAPELLGGPSVFLFPPKPKDTLMISRTPEVTCVVVDVSHEDPEVKFNWYVDGVEVHNAKTKPREEQYNSTYRVVSVLTVLHQDWLNGKEYKCKVSNKALPAPIEKTISKAKGQPREPQVYTLPPSRKEMTKNQVSLTCLVKGFYPSDIAVEWESNGQPENNYKTTPPVLKSDGSFFLYSKLTVDKSRWQQGNVFSCSVMHEALHNHYTQKSLSLSPGK
chain 2: B2 chain 2
notes: also called TGFβRII-Fc:ALK5-Fc heterodimer (long isoform)
